Experimental data as given in PMC3003441 (Nature cell biology, 2010).

Target: N-terminally flag-tagged Ubr1 (^fUbr1), full length (S. cerevisiae, UniProt P19812 1-1950)
Experiment: co-IP

Chain of N-terminally flag-tagged Ubr1 (^fUbr1), full length (P19812 whole entry): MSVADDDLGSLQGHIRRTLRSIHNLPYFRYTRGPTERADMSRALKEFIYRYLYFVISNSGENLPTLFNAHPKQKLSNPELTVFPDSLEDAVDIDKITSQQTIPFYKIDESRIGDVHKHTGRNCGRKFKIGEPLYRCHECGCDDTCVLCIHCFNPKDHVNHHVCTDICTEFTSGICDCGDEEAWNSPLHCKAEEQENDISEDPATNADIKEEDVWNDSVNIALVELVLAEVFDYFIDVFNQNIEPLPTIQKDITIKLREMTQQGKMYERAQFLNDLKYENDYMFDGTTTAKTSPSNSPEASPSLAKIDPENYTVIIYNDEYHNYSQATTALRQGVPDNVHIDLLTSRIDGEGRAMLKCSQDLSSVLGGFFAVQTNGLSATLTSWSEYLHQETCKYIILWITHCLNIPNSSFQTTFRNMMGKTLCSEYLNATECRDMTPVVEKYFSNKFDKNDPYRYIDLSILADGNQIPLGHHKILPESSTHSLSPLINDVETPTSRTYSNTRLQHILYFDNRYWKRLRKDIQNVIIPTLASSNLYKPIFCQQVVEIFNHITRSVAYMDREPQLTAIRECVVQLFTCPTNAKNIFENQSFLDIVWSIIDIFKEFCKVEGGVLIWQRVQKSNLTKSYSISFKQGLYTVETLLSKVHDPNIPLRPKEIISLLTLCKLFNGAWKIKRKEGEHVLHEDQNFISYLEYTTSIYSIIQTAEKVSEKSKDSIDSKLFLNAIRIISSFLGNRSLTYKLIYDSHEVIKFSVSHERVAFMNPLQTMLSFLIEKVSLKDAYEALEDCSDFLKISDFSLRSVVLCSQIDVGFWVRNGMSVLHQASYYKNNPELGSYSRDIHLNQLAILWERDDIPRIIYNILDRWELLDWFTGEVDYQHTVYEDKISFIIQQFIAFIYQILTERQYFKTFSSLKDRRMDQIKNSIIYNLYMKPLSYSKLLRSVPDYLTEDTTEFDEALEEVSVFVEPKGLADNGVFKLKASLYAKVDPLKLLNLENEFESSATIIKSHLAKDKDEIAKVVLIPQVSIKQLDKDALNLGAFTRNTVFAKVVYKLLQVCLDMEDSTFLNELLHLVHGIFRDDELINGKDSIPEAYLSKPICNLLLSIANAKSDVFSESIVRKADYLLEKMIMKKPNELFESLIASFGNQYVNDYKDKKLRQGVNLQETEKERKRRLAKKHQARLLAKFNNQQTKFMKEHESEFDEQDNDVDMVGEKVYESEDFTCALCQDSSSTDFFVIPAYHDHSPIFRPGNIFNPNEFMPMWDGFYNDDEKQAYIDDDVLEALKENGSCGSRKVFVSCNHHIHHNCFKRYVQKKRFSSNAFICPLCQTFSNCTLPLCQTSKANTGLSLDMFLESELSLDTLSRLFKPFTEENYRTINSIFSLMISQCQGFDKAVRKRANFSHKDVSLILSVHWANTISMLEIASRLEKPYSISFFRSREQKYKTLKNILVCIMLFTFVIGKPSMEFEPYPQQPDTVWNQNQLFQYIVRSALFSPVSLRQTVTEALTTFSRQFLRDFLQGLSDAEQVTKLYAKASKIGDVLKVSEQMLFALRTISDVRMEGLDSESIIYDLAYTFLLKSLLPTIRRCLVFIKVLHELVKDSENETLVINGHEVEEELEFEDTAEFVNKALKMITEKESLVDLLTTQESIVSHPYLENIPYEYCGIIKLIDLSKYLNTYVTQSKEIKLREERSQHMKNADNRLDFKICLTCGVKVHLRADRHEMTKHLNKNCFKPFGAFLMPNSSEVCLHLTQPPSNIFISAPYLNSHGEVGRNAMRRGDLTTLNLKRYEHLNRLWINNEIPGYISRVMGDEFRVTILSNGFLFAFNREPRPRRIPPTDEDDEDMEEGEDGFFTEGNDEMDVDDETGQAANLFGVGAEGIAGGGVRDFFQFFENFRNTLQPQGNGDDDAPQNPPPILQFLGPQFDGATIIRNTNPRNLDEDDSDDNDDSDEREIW

- binding result: binds
B1: flag-tagged Ufd4 (^fUfd4), purified (enzyme, S. cerevisiae, UniProt P33202 1-1483, looked up)
chain: MSENNSHNLDEHESHSENSDYMMDTQVEDDYDEDGHVQGEYSYYPDEDEDEHMLSSVGSFEADDGEDDDNDYHHEDDSGLLYGYHRTQNGSDEDRNEEEDGLERSHDNNEFGSNPLHLPDILETFAQRLEQRRQTSEGLGQHPVGRTLPEILSMIGGRMERSAESSARNERISKLIENTGNASEDPYIAMESLKELSENILMMNQMVVDRIIPMETLIGNIAAILSDKILREELELQMQACRCMYNLFEVCPESISIAVDEHVIPILQGKLVEISYIDLAEQVLETVEYISRVHGRDILKTGQLSIYVQFFDFLTIHAQRKAIAIVSNACSSIRTDDFKTIVEVLPTLKPIFSNATDQPILTRLVNAMYGICGALHGVDKFETLFSLDLIERIVQLVSIQDTPLENKLKCLDILTVLAMSSDVLSRELREKTDIVDMATRSFQHYSKSPNAGLHETLIYVPNSLLISISRFIVVLFPPEDERILSADKYTGNSDRGVISNQEKFDSLVQCLIPILVEIYTNAADFDVRRYVLIALLRVVSCINNSTAKAINDQLIKLIGSILAQKETASNANGTYSSEAGTLLVGGLSLLDLICKKFSELFFPSIKREGIFDLVKDLSVDFNNIDLKEDGNENISLSDEEGDLHSSIEECDEGDEEYDYEFTDMEIPDSVKPKKISIHIFRTLSLAYIKNKGVNLVNRVLSQMNVEQEAITEELHQIEGVVSILENPSTPDKTEEDWKGIWSVLKKCIFHEDFDVSGFEFTSTGLASSITKRITSSTVSHFILAKSFLEVFEDCIDRFLEILQSALTRLENFSIVDCGLHDGGGVSSLAKEIKIKLVYDGDASKDNIGTDLSSTIVSVHCIASFTSLNEFLRHRMVRMRFLNSLIPNLTSSSTEADREEEENCLDHMRKKNFDFFYDNEKVDMESTVFGVIFNTFVRRNRDLKTLWDDTHTIKFCKSLEGNNRESEAAEEANEGKKLRDFYKKREFAQVDTGSSADILTLLDFLHSCGVKSDSFINSKLSAKLARQLDEPLVVASGALPDWSLFLTRRFPFLFPFDTRMLFLQCTSFGYGRLIQLWKNKSKGSKDLRNDEALQQLGRITRRKLRISRKTIFATGLKILSKYGSSPDVLEIEYQEEAGTGLGPTLEFYSVVSKYFARKSLNMWRCNSYSYRSEMDVDTTDDYITTLLFPEPLNPFSNNEKVIELFGYLGTFVARSLLDNRILDFRFSKVFFELLHRMSTPNVTTVPSDVETCLLMIELVDPLLAKSLKYIVANKDDNMTLESLSLTFTVPGNDDIELIPGGCNKSLNSSNVEEYIHGVIDQILGKGIEKQLKAFIEGFSKVFSYERMLILFPDELVDIFGRVEEDWSMATLYTNLNAEHGYTMDSSIIHDFISIISAFGKHERRLFLQFLTGSPKLPIGGFKSLNPKFTVVLKHAEDGLTADEYLPSVMTCANYLKLPKYTSKDIMRSRLCQAIEEGAGAFLLS
